“Also recorded” adds a separate entry of the source.
Experiments:
TLR3 [1] = molecular target: T1, TLR3 (Homo sapiens, UniProt O15455); experiment: IP-10 production by donor PBMC in response to dsRNA and drug combinations; assay type: cell-based; settings: mAb 50 μg/ml
Method: IP-10 production was assessed in human donors in response to polyAU (IPH3102), believed to be a specific agonist of TLR3, or pIC, believed to be an agonist of TLR3 as well as other dsRNA receptors such as RIG-I and MDA-5. Fresh PBMC were isolated from whole blood of two independent donors. […] Cells were incubated 1 hr at 37° C. prior addition of 300 μg/ml IPH3102 or 30 μg/ml poly(I:C). Cells were incubated for 24 additional hours at 37° C. Supernatant were then harvested to quantify IP10 production by ELISA. Cells were then recovered, stained with 7-AAD and analyzed by flow cytometry (FACS) to evaluate potential toxic effects of any drugs.

TLR3 [2] = molecular target: T1, TLR3; experiment: SPR competition assay with polyAU in acidic buffer; assay type: binding; set-up: purchased R&D Systems; settings: pH 5.6
Method: (a) General Biacore T100 methods. SPR measurements were performed on a Biacore T100 apparatus (Biacore GE Healthcare) at 25° C. In all Biacore experiments HBS-EP+ buffer (Biacore GE Healthcare) or 10 mM sodium acetate pH 5.6, 150 mM NaCl, 0.05% P20 served as running buffer and sensorgrams were analyzed with Biaevaluation 4.1 and Biacore T100 Evaluation software. Recombinant human and mouse TLR3 were purchased from R&D Systems. (b) Protein immobilization. Recombinant TLR3 protein was immobilized covalently to carboxyl groups in the dextran layer of a Biacore Series 5 Sensor Chip CM5 (chip). The chip surface was activated with EDC/NHS (0.2M N-ethyl-N′-(3-dimethylaminopropyl) carbodiimidehydrochloride, 0.05M N-hydroxysuccinimide (Biacore GE Healthcare)). […] Deactivation of the remaining activated groups was performed using 100 mM ethanolamine pH 8 (Biacore GE Healthcare). (c) Antibody binding analysis was run using HBS-EP+ (neutral pH). Antibodies at a concentration of 10 μg/ml were injected for 2 min at a constant flow rate of 10 μl/min over the immobilized proteins and allowed to dissociate for 3 min before regeneration by a ten second injection of 10 mM NaOH, 500 mM NaCl regeneration buffer. Blank correction was performed on line by co-injecting the soluble antibodies onto the reference dextran flow cell. (d) Competition assay in acidic buffer (pH 5.6). Flow rate was set to 10 μl/min, the first antibody at a concentration of 50 μg/ml (or polyAU at 100 μg/ml) was injected for 2 min, 3 times successively in order to saturate the rhTLR3 surface. The second antibody (or polyAU at 100 μg/ml when the polyAU was added after first antibody) was then injected for 2 min also at 50 μg/ml and allowed to dissociate for 3 min before regeneration by a 15 second injection of 10 mM NaOH, 500 mM NaCl regeneration buffer. Blank correction was also performed on line and the curve using the saturating antibody (or neucleic acid) followed by an injection of buffer subtracted to remove the signal due to the dissociation of the first complex. The resulting signal was compared to that obtained by the injection of the second antibody directly onto the rhTLR3 surface.
Competition assays were conducted according to the methods described for SPR, item d) at pH 5.6.
Buffer (followed by polyAU) is represented in the lower line, while 31C3 followed by polyAU is in the upper line.

TLR3 [3] = molecular target: T1, TLR3; experiment: 293T-TLR3-ISRE luciferase reporter gene assay; assay type: cell-based; set-up: host or cells: 293T (ATCC #CRL-1573), stably carrying pISRE-luc; settings: dsRNA TLR3 agonist
Text: A reporter gene assay using as promoter ISRE (IFN-stimulated response element) and as reporter gene and protein luciferase was set up. A 293T cell line (ATCC, #CRL-1573) was stably transfected with pISRE-luc plasmid (#219089—Stratagene), further selected by cloning as inducing optimal response to IFN-alpha stimulation and referred to as control 293T-ISRE. This cell line was further stably transfected with pUNO-humanTLR3 plasmid (#puno-htlr3—InVivogen) or pUNO-mouseTLR3 plasmid (#puno-mtlr3—InVivogen) and referred to as 293T-TLR3-ISRE and 293T-mTLR3-ISRE respectively. On day 0, cells are seeded at 4×10^5 cells/mL in complete culture medium in 96-well culture plate (100 μl/well). Cells are first incubated at 37° C. for 20 hours, then 50 μL of medium are discarded and cells are activated with 100 μL/well final of increasing amounts of polyAU together with various concentrations of anti-TLR3 antibodies. Cells incubated with fresh medium will be used as background luciferase activity. Cells are incubated at 37° C. for 6 hours. 100 μL of freshly thawed Steady Glo (Promega) are added to each well, plates were incubated 10 min at RT in the dark and the light emitted in each well is quantified as Count Per Second (CPS) on a gamma-counter (TopCount) apparatus.
Antibodies were tested for inhibition of TLR3 signaling in a luciferase based reporter gene activity (293T-TLR3-ISRE). […] Briefly, dsRNA TLR3 agonists were used to induce TLR3 signaling in the reporter assay in the presence of anti-TLR3 antibodies, and TLR3 signaling was assessed.
In a further set of experiments, 293-huTLR3 cells were incubated with different concentrations of the anti-TLR3 mAbs for 1 to 2 hours (see FIG. 1A; mAb concentration is represented in axis in μg/ml on a logarithmic scale) followed by the addition to the medium of the TLR3 agonist polyAU at a concentration of 300 μg/ml. Luciferase expression was measured after 6 h. […]
Similarly the kinetics of inhibition of the antibodies was evaluated in 293T-TLR3 luciferase assay. […] Luciferase expression was measured at 6 h post poly(A:U) addition. […]

[4] = molecular target: T2, recombinant human TLR3 extracellular domain (R&D Systems) (human, UniProt O15455 27-711); experiment: SPR (Biacore T100), rhTLR3 immobilised on CM5 chip, bivalent affinity, pH 5.6, mean of 2 or 3 experiments
T2 construct: also called rhTLR3; human rec TLR3; not shown: His tag (R&D #1487-TR)

[5] = molecular target: T2, recombinant human TLR3 extracellular …; experiment: SPR (Biacore T100), rhTLR3 immobilised on CM5 chip, bivalent affinity, pH 7.2, mean of 2 or 3 experiments
Method: (a) General Biacore T100 methods. SPR measurements were performed on a Biacore T100 apparatus (Biacore GE Healthcare) at 25° C. In all Biacore experiments HBS-EP+ buffer (Biacore GE Healthcare) or 10 mM sodium acetate pH 5.6, 150 mM NaCl, 0.05% P20 served as running buffer and sensorgrams were analyzed with Biaevaluation 4.1 and Biacore T100 Evaluation software. Recombinant human and mouse TLR3 were purchased from R&D Systems. (b) Protein immobilization. Recombinant TLR3 protein was immobilized covalently to carboxyl groups in the dextran layer of a Biacore Series 5 Sensor Chip CM5 (chip). The chip surface was activated with EDC/NHS (0.2M N-ethyl-N′-(3-dimethylaminopropyl) carbodiimidehydrochloride, 0.05M N-hydroxysuccinimide (Biacore GE Healthcare)). […] Deactivation of the remaining activated groups was performed using 100 mM ethanolamine pH 8 (Biacore GE Healthcare). (c) Antibody binding analysis was run using HBS-EP+ (neutral pH). Antibodies at a concentration of 10 μg/ml were injected for 2 min at a constant flow rate of 10 μl/min over the immobilized proteins and allowed to dissociate for 3 min before regeneration by a ten second injection of 10 mM NaOH, 500 mM NaCl regeneration buffer. Blank correction was performed on line by co-injecting the soluble antibodies onto the reference dextran flow cell. (d) Competition assay in acidic buffer (pH 5.6). […]

TLR3 [6] = molecular target: T1, TLR3; experiment: Myeloid DC (MdDC) secretion and expression inhibition test; assay type: cell-based; set-up: Myeloid DC (MdDC) were obtained from PBMC by isolating PBMC from normal healthy human donors; endogenous in cells; host or cells: human monocyte-derived DC (CD14+ monocytes cultured with GM-CSF and IL-4); settings: polyAU
Method: Myeloid DC (MdDC) were obtained from PBMC by isolating PBMC from normal healthy human donors. Monocytes were purified from PBMC using positive selection with human CD14 microbeads (Miltenyi Biotech) following general instructions. Monocytes were further derived into DC (MdDC) by 5-6 days incubation in human GM-CSF (Leucomax, SP) and human IL-4 (R&D Systems) at respectively 200 ng/ml and 20 ng/ml.
The resulting MdDC were then seeded at 10^6 cells/ml, in duplicate, in flat bottom 96-well plates. Cells were activated for 20 hours in a final volume of 200 μl, together with the anti-TLR3 antibodies at the indicated concentrations. Increasing amounts of polyAU were added to the wells to obtain a dose effect read-out at the dose and timepoint as indicated.
Supernatants were collected after 20 h of stimulation, frozen at −20° C., and further assayed for IL-6 and IP-10 using Enzyme-linked immunosorbent assay. Cells were then harvested, stained for activation markers CD86 (with a.huCD86 mouse, IgG1, FITC, BD Biosciences, ref 555657), with detection using FACSCanto™ flow cytometer (BD Biosciences).
Myeloid DC (MdDC) secretion inhibition test is performed according to the section titled Materials and Methods.

TLR3 [7] = molecular target: T1, TLR3; experiment: SPR (Biacore) bivalent affinity on immobilized TLR3; assay type: binding; set-up: purchased R&D Systems; settings: neutral pH; own vs commercially available antibodies
Method: (a) General Biacore T100 methods. SPR measurements were performed on a Biacore T100 apparatus (Biacore GE Healthcare) at 25° C. In all Biacore experiments HBS-EP+ buffer (Biacore GE Healthcare) or 10 mM sodium acetate pH 5.6, 150 mM NaCl, 0.05% P20 served as running buffer and sensorgrams were analyzed with Biaevaluation 4.1 and Biacore T100 Evaluation software. Recombinant human and mouse TLR3 were purchased from R&D Systems. (b) Protein immobilization. Recombinant TLR3 protein was immobilized covalently to carboxyl groups in the dextran layer of a Biacore Series 5 Sensor Chip CM5 (chip). The chip surface was activated with EDC/NHS (0.2M N-ethyl-N′-(3-dimethylaminopropyl) carbodiimidehydrochloride, 0.05M N-hydroxysuccinimide (Biacore GE Healthcare)). […] Deactivation of the remaining activated groups was performed using 100 mM ethanolamine pH 8 (Biacore GE Healthcare). (c) Antibody binding analysis was run using HBS-EP+ (neutral pH). Antibodies at a concentration of 10 μg/ml were injected for 2 min at a constant flow rate of 10 μl/min over the immobilized proteins and allowed to dissociate for 3 min before regeneration by a ten second injection of 10 mM NaOH, 500 mM NaCl regeneration buffer. […]
Binding to TLR3 was determined at neutral (pH 7.2) and acid (pH 5.6) conditions, and KD values were calculated. […]

| Molecule | IP-10 production in response to polyAU (TLR3 [1]; donor 2, IPH3102 300 μg/ml) | IP-10 production in response to polyIC (TLR3 [1]; donors 1 and 2, poly(I:C) 30 μg/ml) | antibody binding to TLR3 chip previously incubated with polyAU (TLR3 [2]) | inhibition of TLR3 signaling (TLR3 [3]) | Kd [4] | Kd [5] | TLR3-mediated CD83/CD86 expression (TLR3 [6]) | TLR3-mediated cytokine/chemokine secretion (IP-10, IL-6) (TLR3 [6]) | binding affinity for TLR3 compared (TLR3 [7]) |
| --- | --- | --- | --- | --- | --- | --- | --- | --- | --- |
| 34A3: anti-human TLR3 monoclonal antibody; VH SEQ ID NO: 34, VL SEQ ID NO: 35 (antibody, listed as Mus musculus, V domains shown, SIGNAL (1)..(19); SIGNAL (1)..(22)) VH: MEWRWIFLFLLSGTTGVHSEIQLQQSGPELVKPGASVKVSCKASGYVFTTYSIYWVKQSHGKSLEWIGYIDPYNGDTSYNQKFKGKATLTVDKSSSTAYMHLNSLTSEDSTVYYCAREGNYYGYFDYWGQGTTLTVS VL: MDFQVQIFSFLLMSASVIMSRGQIVLTQSPALMSASPGEKVTMTCSASSSVSYMFWYQQKPRSSPKPWIYLTSNLASGVPARFSGSGSGTSYSLTISSMEAEDAATYYCQQWTGNPPTFGGGTKLEIK | substantially reduce IP-10 production | substantially reduce IP-10 production | able to bind TLR3 even in the presence of polyAU | strongly inhibited TLR3 signaling in a dose dependent fashion; also recorded: enhanced inhibition effect at low concentrations | – | – | – | – | – |
| antibody 29H3 (antibody, V domains shown, also called 29H3.7; CNCM I-4187) VH: DVQLQESGPDLVKPSQSLSLTCTVTGYSITSGYSWHWIRQFLGNKLEWMGYIHYSGITNYNPSLRSRISFTRDTSKNQFFLQLNSVTTEDTATYYCARDGYYGMDYWGQGTSVTVS VL: DIVMTQSQKFMSTSVGDRVSITCKASQNVRTSVAWYQQKPGQSPKALIYLASNRHTGVPDRFTGSGSGTDFTLTVSNIQSEDLADYFCLQHWNYPYTFGGGTKLEIK | – | – | – | – | 0.011 nM | 0.0474 nM | effectively downregulated TLR3-mediated CD83/CD86 expression | abrogated TLR3-mediated cytokine/chemokine secretion, to a similar extent as full length antibodies | – |
| 29H3: anti-human TLR3 monoclonal antibody, IgG1; VH SEQ ID NO: 10, VL SEQ ID NO: 11; CNCM I-4187 (antibody, listed as Mus musculus, V domains shown, SIGNAL (1)..(18); SIGNAL (1)..(20), anti-human TLR3 monoclonal antibody, IgG1; CNCM I-4187) VH: MRVLILLCLFTAFPGILSDVQLQESGPDLVKPSQSLSLTCTVTGYSITSGYSWHWIRQFLGNKLEWMGYIHYSGITNYNPSLRSRISFTRDTSKNQFFLQLNSVTTEDTATYYCARDGYYGMDYWGQGTSVTVS VL: MDFQTQVFVFVLLWLSGVDGDIVMTQSQKFMSTSVGDRVSITCKASQNVRTSVAWYQQKPGQSPKALIYLASNRHTGVPDRFTGSGSGTDFTLTVSNIQSEDLADYFCLQHWNYPYTFGGGTKLEIK | – | – | able to bind TLR3 even in the presence of polyAU | – | – | – | effectively downregulated TLR3-mediated CD83/CD86 expression | abrogated TLR3-mediated cytokine/chemokine secretion | significantly better |

From US20140065154A1, “TLR3 BINDING AGENTS” (INNATE PHARMA, priority 2011, published 2014)
